The source of these data is US20120156203A1.

The target of the experiment is human IL13 (human) (UniProt P35225). Description: cell-based or functional assay.
Chain of human IL13 (human) (P35225 other isoform, or with tags, fused parts or gaps limits assumed): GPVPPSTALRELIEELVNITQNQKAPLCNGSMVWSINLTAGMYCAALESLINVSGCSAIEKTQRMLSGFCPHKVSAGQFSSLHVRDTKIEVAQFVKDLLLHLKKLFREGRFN

Regarding “anti-IL13 MAb JES10-5A2 (BD Biosciences-Pharmingen) (antibody)”, the concentration for complete inhibition of IL13-suppressed CD14 expression on human monocytes (0.813 nM IL13) is > 80 nM.
